Measured values: the PETadex activity labels (doi:10.3389/fbioe.2022.865787)

Tests used:
p-NP-C10 = settings: pH 8; 35 °C
p-NP-C12 = settings: pH 8; 35 °C
p-NP-C14 = settings: pH 8; 35 °C
p-NP-C16 = settings: pH 8; 35 °C
p-NP-C18 = settings: pH 8; 35 °C
p-NP-C2 = settings: pH 8; 35 °C
p-NP-C4 = settings: pH 8; 35 °C
p-NP-C6 = settings: pH 8; 35 °C
p-NP-C8 = settings: pH 8; 35 °C
pNPB = assay: Proxy for plastic degradation [Absorbance @ 405nm]
PET [1] = assay: Proxy for plastic degradation [Released monomer concentration (HPLC/LC-MS) (TPA)]; settings: pH 8.5
PET [2] = assay: Proxy for plastic degradation [Released monomer concentration (HPLC/LC-MS) (BHET)]; settings: pH 8.5
PET [3] = assay: Proxy for plastic degradation [Released monomer concentration (HPLC/LC-MS) (MHET)]; settings: pH 8.5
PET [4] = assay: Proxy for plastic degradation [Released monomer concentration (HPLC/LC-MS) (Total aromatic products)]; settings: pH 8.5

B1: unnamed (protein)
chain: MLTHSISPEETDGGRRTPLSRMSRLAARVGVTLSLAAGLTAGVTAPAHASNPYERGPAPTESSVTAVRGYFDTDTDTVSSLVSGFGGGTIYYPTDTSEGTFGGVVIAPGYTASQSSMAWMGHRIASQGFVVFTIDTITRYDQPDSRGRQIEAALDYLVEDSDVADRVDGNRLAVMGHSMGGGGTLAAAENRPELRAAIPLTPWHLQKNWSDVEVPTMIIGAENDTVASVRTHSIPFYESLDEDLERAYLELDGASHFAPNISNTVIAKYSISWLKRFVDEDERYEQFLCPPPDTGLFSDFSDYRDSCPHTT
- Km (p-NP-C10): 4930 µM
- kcat (p-NP-C10): 69.9 s⁻¹
- kcat/Km (p-NP-C10): 14200 M⁻¹ s⁻¹
- Km (p-NP-C12): 1680 µM
- kcat (p-NP-C12): 30.5 s⁻¹
- kcat/Km (p-NP-C12): 18200 M⁻¹ s⁻¹
- Km (p-NP-C14): 190 µM
- kcat (p-NP-C14): 9.87 s⁻¹
- kcat/Km (p-NP-C14): 51900 M⁻¹ s⁻¹
- Km (p-NP-C16): 150 µM
- kcat (p-NP-C16): 4.79 s⁻¹
- kcat/Km (p-NP-C16): 31900 M⁻¹ s⁻¹
- Km (p-NP-C18): 450 µM
- kcat (p-NP-C18): 14.3 s⁻¹
- kcat/Km (p-NP-C18): 31800 M⁻¹ s⁻¹
- Km (p-NP-C2): 550 µM
- kcat (p-NP-C2): 4.47 s⁻¹
- kcat/Km (p-NP-C2): 8130 M⁻¹ s⁻¹
- Km (p-NP-C4): 1330 µM
- kcat (p-NP-C4): 14.1 s⁻¹
- kcat/Km (p-NP-C4): 10600 M⁻¹ s⁻¹
- Km (p-NP-C6): 4610 µM
- kcat (p-NP-C6): 41.7 s⁻¹
- kcat/Km (p-NP-C6): 9050 M⁻¹ s⁻¹
- Km (p-NP-C8): 2550 µM
- kcat (p-NP-C8): 79.4 s⁻¹
- kcat/Km (p-NP-C8): 31100 M⁻¹ s⁻¹
- Proxy for plastic degradation (pNPB; pH 8): 100%
- Proxy for plastic degradation (pNPB; pH 8, 0 h): 100%
- Proxy for plastic degradation (pNPB; pH 8.5): 97.5%
- Proxy for plastic degradation (PET [1]; 12 h): 5 µM
- Proxy for plastic degradation (PET [1]; 24 h): 12.5 µM
- Proxy for plastic degradation (PET [1]; 36 h): 25 µM
- Proxy for plastic degradation (PET [1]; 48 h): 50 µM
- Proxy for plastic degradation (PET [1]; 60 h): 70 µM
- Proxy for plastic degradation (PET [1]; 72 h): 75 µM
- Proxy for plastic degradation (PET [1]; 84 h): 120 µM
- Proxy for plastic degradation (PET [1]; 96 h): 150 µM
- Proxy for plastic degradation (PET [1]; 108 h): 180 µM
- Proxy for plastic degradation (PET [2]): 1 µM
- Proxy for plastic degradation (PET [3]; 12 h): 5 µM
- Proxy for plastic degradation (PET [3]; 24 h): 10 µM
- Proxy for plastic degradation (PET [3]; 36 h): 20 µM
- Proxy for plastic degradation (PET [3]; 48 h): 70 µM
- Proxy for plastic degradation (PET [3]; 60 h): 105 µM
- Proxy for plastic degradation (PET [3]; 72 h): 140 µM
- Proxy for plastic degradation (PET [3]; 84 h): 135 µM
- Proxy for plastic degradation (PET [3]; 96 h): 155 µM
- Proxy for plastic degradation (PET [3]; 108 h): 150 µM
- Proxy for plastic degradation (PET [4]; 30 °C): 45 µM
- Proxy for plastic degradation (PET [4]; 35 °C): 130 µM
- Proxy for plastic degradation (PET [4]; 40 °C): 230 µM
- Proxy for plastic degradation (PET [4]; 45 °C): 330 µM
- Proxy for plastic degradation (PET [4]; 50 °C): 100 µM
